Reference: the supplement of paper PMC7125110
± gives the standard error. Fewer inactive variants are shown than the library holds.

B1: glmS ribozyme (parent)
chain: AUAAAAGCGCCAGAACUACAGAAAUGUAGUUGACGAGGAGGAGGUUUAUCGAAUUUUCGGCGGAUGCCUCCAAA

Legend:
Details in all cases: with glucosamine-6-phosphate
glucosamine-6-phosphate [1] = variants of: B1; assay: self-cleavage kobs at 160 uM GlcN6P; higher = faster cleavage; RNA array
Outline: (§1)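 A hybridised Cy3 probe tracked barcoded ribozyme variants, transcribed in situ by E. coli RNA polymerase on sequenced MiSeq chips, at 37 °C. The variants received 40 μM to 10 mM glucosamine-6-phosphate in HEPES/KCl/Mg(OAc)2 buffer. kobs came from decay fits and kcat and KM from weighted Michaelis–Menten fits.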

glucosamine-6-phosphate [2] = variants of: B1; assay: self-cleavage kobs at 10000 uM GlcN6P; higher = faster cleavage; RNA array
Outline: as §1

glucosamine-6-phosphate [3] = variants of: B1; assay: self-cleavage kobs at 2500 uM GlcN6P; higher = faster cleavage; RNA array
Outline: as §1

glucosamine-6-phosphate [4] = variants of: B1; assay: self-cleavage kobs at 640 uM GlcN6P; higher = faster cleavage; RNA array
Outline: as §1

| Variant | self-cleavage kobs at 160 uM GlcN6P (glucosamine-6-phosphate [1]) [s⁻¹] | self-cleavage kobs at 10000 uM GlcN6P (glucosamine-6-phosphate [2]) [s⁻¹] | self-cleavage kobs at 2500 uM GlcN6P (glucosamine-6-phosphate [3]) [s⁻¹] | self-cleavage kobs at 640 uM GlcN6P (glucosamine-6-phosphate [4]) [s⁻¹] |
| --- | --- | --- | --- | --- |
| G41A C67A | < 1e-05 | 4.21e-05 ± 8.7e-06 |  |  |
| A42G G60A C68A | < 1e-05 |  |  |  |
| G41U U65A C68G | < 1e-05 |  | < 1e-05 |  |
| G40U G51U C58U | < 1e-05 |  |  |  |
| G43A G44A U47A | < 1e-05 |  |  |  |
| G38C G41U G63C | < 1e-05 |  | < 1e-05 |  |
| G35U U46C | < 1e-05 |  |  | < 1e-05 |
| A36C U46G A52G G60U | < 1e-05 |  | < 1e-05 | < 1e-05 |
| G37A A42C U46C | < 1e-05 |  | < 1e-05 |  |
| G37A C50G U69C | 5.92e-05 ± 1.9e-05 |  |  | 7.07e-05 ± 2.7e-05 |
| G44A A48G G51U G59A | < 1e-05 |  | < 1e-05 |  |
| A33G G35A A36C A64G | < 1e-05 |  |  |  |
| U45A A53U U65A | 0.000624 ± 0.00014 |  | 0.00652 ± 0.0016 | 0.0024 ± 0.00081 |
| G43A U49C G66A C70G | < 1e-05 |  | < 1e-05 | < 1e-05 |
| G40C G63A | < 1e-05 | < 1e-05 | < 1e-05 | < 1e-05 |
| A33G U45G U69A | < 1e-05 |  |  | < 1e-05 |
| G43C U54A G60C | < 1e-05 |  |  | < 1e-05 |
| G43U G59U | < 1e-05 |  | < 1e-05 | < 1e-05 |
| A33U G63C | < 1e-05 | < 1e-05 | < 1e-05 | < 1e-05 |
| A39C A42C U46C | < 1e-05 |  |  |  |
| G35C U55A | < 1e-05 |  | < 1e-05 | < 1e-05 |
| G43U G59U G63U C68A | < 1e-05 |  | < 1e-05 | < 1e-05 |
| G35U G37C U45C | < 1e-05 |  | < 1e-05 |  |
| G44U G63U | < 1e-05 | < 1e-05 | < 1e-05 | < 1e-05 |
| G44A G66C | < 1e-05 |  |  |  |
| G43C A52C U57C | < 1e-05 |  |  | < 1e-05 |

| Variant | self-cleavage kobs at 160 uM GlcN6P (glucosamine-6-phosphate [1]) [s⁻¹] | self-cleavage kobs at 10000 uM GlcN6P (glucosamine-6-phosphate [2]) [s⁻¹] | self-cleavage kobs at 2500 uM GlcN6P (glucosamine-6-phosphate [3]) [s⁻¹] | self-cleavage kobs at 640 uM GlcN6P (glucosamine-6-phosphate [4]) [s⁻¹] |
| --- | --- | --- | --- | --- |
| G35C A36G U49A | < 1e-05 |  | < 1e-05 | < 1e-05 |
| A39C A53U G59U C67U | < 1e-05 |  |  |  |
| G41A A48U A64U C71A | < 1e-05 |  | < 1e-05 |  |
| G41U U46G C61A | < 1e-05 |  | < 1e-05 | < 1e-05 |
| G40A A42U U49C C58G A64G C70G | < 1e-05 |  | < 1e-05 | < 1e-05 |
| U45C A53C C67U | < 1e-05 |  | 6.03e-05 ± 1.8e-05 | 5.23e-05 ± 1.6e-05 |
| A42C A48G U55A | < 1e-05 |  |  | < 1e-05 |
| G38A G41A U45C A52G | < 1e-05 |  |  | < 1e-05 |
| A36G C58A G60A | < 1e-05 | < 1e-05 |  | < 1e-05 |
| G40U G60A U65G | < 1e-05 |  | < 1e-05 | < 1e-05 |
| C34A C50G | 5.9e-05 ± 1.6e-05 |  |  | 0.000448 ± 0.00021 |
| U45A U57C | 3.83e-05 ± 1.6e-05 | 0.000355 ± 4.8e-05 | 0.000268 ± 4.2e-05 | 3.94e-05 ± 8.9e-06 |
| G43U G60U U69G | < 1e-05 |  |  | < 1e-05 |
| A36G G60C | < 1e-05 | < 1e-05 | < 1e-05 | < 1e-05 |
| G40U A64U U65G C71G | < 1e-05 |  |  | < 1e-05 |
| G38U G44C U56C U57G C70U | < 1e-05 |  | < 1e-05 |  |
| A42C A52C C67G | < 1e-05 |  |  |  |
| G38A U54G C68A | 5.08e-05 ± 2e-05 |  |  |  |
| G41A C68U C70U | 0.000155 ± 3.4e-05 |  | 0.00138 ± 0.00025 | 0.00049 ± 8.2e-05 |
| G35C A53G | < 1e-05 | < 1e-05 | < 1e-05 | < 1e-05 |
| C34U C61G | < 1e-05 | < 1e-05 |  | < 1e-05 |
| G35A C50G G59C U65G | 4.37e-05 ± 1.9e-05 |  |  | < 1e-05 |
| G41A G51C G63U C70G | < 1e-05 |  |  | < 1e-05 |
| G35A G43U C50G A64G | < 1e-05 |  |  |  |
| G35A U49A | < 1e-05 | < 1e-05 |  | < 1e-05 |
| G35C A36U | < 1e-05 | < 1e-05 | < 1e-05 | < 1e-05 |
